Measured values as given in US20060083742A1.

Legend:
YFP-Bcl-XL (human) = YFP-Bcl-XL (human) (UniProt Q07817); assay: acceptor-photobleaching FRET on single mitochondria of living cells after PKC agonist
CFP-Bcl-XL (human) = CFP-Bcl-XL (human) (UniProt Q07817); assay: FRET on mitochondria of bryostatin-1 treated Cos-1 cell, with the fluorophores as the legend of FIG. 5A names them

Substance	FRET efficiency (YFP-Bcl-XL (human))	FRET efficiency (CFP-Bcl-XL (human))
CFP-K-Ras12V (from UniProt P01116 1-186)	17%	–
YFP-K-Ras12V (from UniProt P01116 1-186)	–	17%
